{
  "source": "paper PMC3170560",
  "proteins": {"B1": {"name": "mBnHO1 (mature BnHO1, haem oxygenase-1) (Brassica napus) (protein)", "chain": "ATAAEKQKKKRYPGESKGFVEEMRFVAMRLHTKEQAKEGEKETKAPEERPVAKWEPTVEGYLRFLVDSKLVYDTLEEIIGQSTFPTYAEFKNTGLERAEKLDTDLKWFKEQGYEIPEPTATGKKYSQYLKDLADKDPPSFICHFYNIYFAHSAGGRMIGRKVAERILDNRELEFYKWDGDLSELLQNVREKLNKVAEEWTREEKNHCLVGDRESFKYSGEILRLILS"}},
  "substrate": "C=CC1=C(C)C2=Cc3c(C=C)c(C)c4[n]3[Fe]([Cl])[n]3c(c(C)c(CCC(=O)O)c3=CC3=NC(=C4)C(C)=C3CCC(=O)O)=CC1=N2",
  "assay": "purified protein",
  "settings": "haemin 1-20 μM, NADPH added to start, 0.1 M HEPES-NaOH pH 7.2",
  "data": [
    {"protein": "B1", "values": [
      {"measurement": "Km", "value": 2.52, "unit": "µM"}
    ]}
  ]
}
